One block for each binder: values may come before it.
Key:
[1] = biological target: Flag::GmBBX62 (Glycine max); assay: reciprocal Luminex co-IP from soybean protoplast extract, anti-FLAG capture, anti-GFP detection
[2] = biological target: Flag::GmBBX62 (Glycine max); assay: Luminex co-IP from soybean protoplast extract, anti-GFP capture, anti-FLAG detection
AtBBX32::GFP [3] = biological target: T1, AtBBX32::GFP (Arabidopsis thaliana, UniProt Q9LJB7 1-225); assay: Luminex co-IP from soybean cotyledon protoplast extract, both directions
T1 construct: Fusion protein transiently expressed in soybean cotyledon protoplasts; also called AtBBX32 fused to GFP; not shown: GFP fusion partner
T1 sequence: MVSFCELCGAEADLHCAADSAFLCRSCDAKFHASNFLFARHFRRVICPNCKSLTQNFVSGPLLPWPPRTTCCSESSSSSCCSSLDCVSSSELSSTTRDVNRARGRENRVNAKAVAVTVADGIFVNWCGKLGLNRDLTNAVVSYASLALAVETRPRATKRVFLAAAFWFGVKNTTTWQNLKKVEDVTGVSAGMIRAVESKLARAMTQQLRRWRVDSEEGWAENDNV
Procedure: (§1) Capture antibodies for GFP (MBL International, D153-3),Myc (Bethyl Laboratories cat #A190-104A)and FLAG (Bethyl Laboratories, A190-101A) were covalently coupled to carboxylated fluorescent microspheres (Luminex) according to the manufacturer's protocol Luminex two-step Carbodimide coupling protocol was modified as follows: 3.5×10⁶ beads were conjugated to […] of antibody and resuspended in coupling buffer containing 100 mM MES pH 6. Biotinylated antibodies for GFP (Abcam, ab6658), Myc (Bethyl Laboratories cat #A190-104B)and FLAG (Bethyl laboratories, A190-101B) were used for detection of interacting proteins in the miniaturized sandwich immunoassay. NeutrAvidin R-phycoerythrin was used as the reporter assay reagent (Invitrogen, A2660).
To assess the potential interaction between AtBBX32 and GmBBX39, two experiments were conducted consisting of a total of three repetitions (exp. 1, n=1; exp. 2, n=2). BBX32::GFP was co-expressed with FLAG::GmBBX39 in soybean cotyledon protoplasts. Expression analyses on one replicate of each treatment using either Luminex (BBX32::GFP) or Western blot (FLAG::BBX39) detection confirmed that each protein was expressed at detectable levels (data not shown). When co-expressed in protoplasts, BBX32::GFP and FLAG::BBX39 co-precipitated with either anti-GFP or anti-FLAG beads (FIG. 17).

AtBBX32::GFP [4] = biological target: T1, AtBBX32::GFP; assay: Luminex co-IP, anti-GFP and anti-Myc capture
Procedure: Luminex co-IP assays were performed on extracts from soybean cotyledon protoplasts co-expressing AtBBX32 fused to GFP and GmBBX39 fused to the Myc epitope. A: IP with anti-GFP, detection with anti-Myc. B: IP with anti-Myc, detection with anti-GFP. MFI stands for Median Fluorescence Intensity. * denotes p<0.001.
as §1

fold increase of fluorescence intensity over controls [1]: 5 fold | fold increase of median fluorescence intensity (MFI) over controls [2]: 6 fold
B1: AtBBX32::GFP (protein, not shown: large carriers)
chain: MVSFCELCGAEADLHCAADSAFLCRSCDAKFHASNFLFARHFRRVICPNCKSLTQNFVSGPLLPWPPRTTCCSESSSSSCCSSLDCVSSSELSSTTRDVNRARGRENRVNAKAVAVTVADGIFVNWCGKLGLNRDLTNAVVSYASLALAVETRPRATKRVFLAAAFWFGVKNTTTWQNLKKVEDVTGVSAGMIRAVESKLARAMTQQLRRWRVDSEEGWAENDNV

binding result (AtBBX32::GFP [3]): binds
B2: FLAG::GmBBX39 (other)
chain: MKIQCDVCNKHEASVFCTADEAALCDGCDHRVHHANKLASKHQRFSLLRPSPKQHPLCDICQERRAFTFCQQDRAILCKECDVSIHSANEHTLKHDRFLLTGVKLSASAMLRSSETTSDSNSNPSLLNFSHQTTLLPPSSTTTTTTSNNNNNKVAVEGTGSTSASSISEYLIETLPGWQVEDFLDSYSVPFGFCKNDEVLPRFDGEMEGHLSSFSTENMGIWVPQAPPTLMCSSQMDRVIVHGETNIKGSSRSRLKDDNFTVPQISPPSNSKRARFLW
notes: Co-expressed with BBX32::GFP in soybean cotyledon protoplasts; also called FLAG::BBX39; not shown: FLAG tag

binding result (AtBBX32::GFP [4]): binds
B3: GmBBX39 fused to the Myc epitope (other, not shown: small tags and cut ends)
chain: MKIQCDVCNKHEASVFCTADEAALCDGCDHRVHHANKLASKHQRFSLLRPSPKQHPLCDICQERRAFTFCQQDRAILCKECDVSIHSANEHTLKHDRFLLTGVKLSASAMLRSSETTSDSNSNPSLLNFSHQTTLLPPSSTTTTTTSNNNNNKVAVEGTGSTSASSISEYLIETLPGWQVEDFLDSYSVPFGFCKNDEVLPRFDGEMEGHLSSFSTENMGIWVPQAPPTLMCSSQMDRVIVHGETNIKGSSRSRLKDDNFTVPQISPPSNSKRARFLW
